# Assay results published in PMC6625990, “Structural underpinnings of Ric8A function as a G-protein α-subunit chaperone and guanine-nucleotide exchange factor” (Nature Communications, 2019).
# Like-named read-outs stand apart in the source and are kept apart here. No end group written: not given here.
# Tests used:
# [1] = target: T1, Ric8A1–492 (Bos taurus, UniProt Q5E9J8); assay: BLI: biotinylated Gα C-terminal peptides (Gαt333–350, Gαs363–380, C1, C2) on streptavidin biosensor binding Ric8A1–492; parameters: species or system bovine; conditions: Octet RED96, N-terminally biotinylated peptide on streptavidin biosensor, 20 mM Tris, 150 mM KCl, 5% glycerol, 1 mM TCEP, 0.5 mg/ml BSA, pH 8.0, 26 °C, 1:1 binding model, mean ± SD, read-out: association constant (ka)
# T1 construct: His6 (N); made in house; host or cells: E. coli BL21(DE3)
# T1 sequence (Q5E9J8 1-492): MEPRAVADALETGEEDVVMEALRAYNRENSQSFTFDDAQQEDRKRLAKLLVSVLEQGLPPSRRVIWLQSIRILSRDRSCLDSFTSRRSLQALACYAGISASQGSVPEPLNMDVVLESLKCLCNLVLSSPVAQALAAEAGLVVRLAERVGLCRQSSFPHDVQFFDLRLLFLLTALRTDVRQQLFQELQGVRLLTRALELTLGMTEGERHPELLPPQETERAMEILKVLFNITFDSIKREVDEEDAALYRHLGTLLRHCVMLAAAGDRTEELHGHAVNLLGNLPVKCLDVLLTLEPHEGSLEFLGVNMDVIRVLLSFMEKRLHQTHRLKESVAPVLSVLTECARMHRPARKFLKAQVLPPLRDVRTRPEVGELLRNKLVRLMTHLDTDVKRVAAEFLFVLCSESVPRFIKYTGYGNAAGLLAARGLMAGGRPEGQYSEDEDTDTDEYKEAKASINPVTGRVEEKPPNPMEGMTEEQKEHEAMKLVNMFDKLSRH
# Description: An Octet RED96 system and streptavidin (SA)-coated biosensors (FortéBio, Menlo Park, CA) were used to measure association and dissociation kinetics for Gα peptides or the full-length Avi-tagged Gαt in relation to Ric8A1–492, Ric8A1–452, and Ric8A1–426. To obtain the Avi-tagged Gαt, Gαt was cloned into modified pET21a vector with the N-terminal His6-tag followed by the Avi tag and TEV cleavage site[59]. The Avi-tagged I340Q/N343H mutant of Gαt was prepared by QuikChange protocol. BL21(DE3) cells for expression of the Avi-tagged Gαt were grown in 2TY media supplemented with biotin (10 mg/liter), induced at OD600 of 0.6 with 50 µM IPTG and further grown overnight at 16 °C. Binding studies were performed in 20 mM Tris, 150 mM KCl, 5% glycerol, 1 mM TCEP, 0.5 mg/ml BSA, pH 8.0. […] For each concentration of Ric8A1–492, dissociation rate constant (kd) values were calculated from the corresponding dissociation phases of the curves. These kd values were used to calculate the association rate constant (ka) values from the association phases for each concentration according to the equation1 ka=kobserved-kd∕Ric8A1-492 The average ka and kd were calculated as means of the individual ka and kd values for all curves. Equilibrium dissociation constant KD was calculated as mean kd/mean ka. […]
# [2] = target: T1, Ric8A1–492; assay: DSF: thermal stabilization of Ric8A1–492 by Gαt C-terminal peptides; format: binding, bovine
# Description: Fig. 1 Interaction of Ric8A with the C-terminus of Gα. a Thermal denaturation, as determined by differential scanning fluorimetry (DSF), of 8.7 µM Ric8A1–492 in the absence (black) or presence of 50 µM Gαt340–350 (blue) or Gαt333–350 (red). RFU – relative fluorescence units. Average normalized curves are shown. The Tm values (°C) are shown as mean ± SD (n = 3). b Kinetics of association and dissociation for Ric8A1–492 and biotinylated Gαt333–350 coupled to a streptavidin biosensor as determined using BLI. Representative curves are shown.
# Stabilities of Ric8A constructs with and without peptide ligands were assessed using differential scanning fluorimetry (DSF), in which an increase in fluorescence of the Sypro Orange dye is measured. Ric8A1–492, Ric8A1–452 and Ric8A1–426 in 20 mM Tris-HCl (pH 7.5) buffer containing 150 mM KCl, 5% glycerol, and 1 mM TCEP with and without peptide were used at a final concentration of 0.5 mg/ml and were supplemented with a 1000-fold dilution of Sypro Orange dye (Invitrogen). Temperature was increased at 1 °C/minute and fluorescence signals were recorded using real-time PCR (C1000 Touch thermal cycler, Bio Rad), with the cycler set to FRET mode and the excitation wavelength set at 450–490 nm and the emission wavelength at 560–580 nm.
# [3] = target: T1, Ric8A1–492; assay: SEC complex formation of Gαt C-terminal fusion proteins with Ric8A1–492; format: binding, bovine; conditions: size-exclusion chromatography elution profiles
# Source text: The C-terminal 18-mer peptide of Gαi corresponding to Gαt333–350, was previously shown to bind to Ric8A[26]. To identify C-terminal constructs of Gα that are suitable for crystallization with Ric8A, we tested one in which the 11 C-terminal residues of Gαt were fused to the B1 domain of Streptococcal protein G (GB1-Gαt340–350) and a second in which the 24 C-terminal residues of Gαt were fused to MBP (MBP-Gαt327–350). For Ric8A, we used a construct that is truncated at the C-terminus (Ric8A1–492) and that had been reported to retain the full functionality of Ric8A[26].
# MBP-Gαt327–350 was purified by Ni-NTA chromatography followed by SEC using a HiLoad 16/600 Superdex 200 pg column equilibrated with 20 mM Tris-HCl (pH 7.5) buffer containing 100 mM NaCl, 1 mM EDTA, and 2 mM TCEP. Ric8A1–492/MBP-Gαt327–350 complexes were prepared by mixing the proteins at a 1:1.5 molar ratio in 5 mM maltose and loading the mixture onto a HiLoad 16/600 Superdex 200 pg column equilibrated with 20 mM Tris-HCl (pH 7.5) buffer containing 150 mM KCl, 5% glycerol, and 1 mM TCEP.
# 75 KDa Peak 1 Peak 2 75 KDa Peak 1 Peak 2
# Supplementary Figure 1. Ric8A1-492 forms complexes with GB1-tagged Gαt340-350 andMBP-taggedGαt333-350. […] (B) Peak fractions in A analyzed by SDS-PAGE. […] (D) Peak fractions in C analyzed by SDS-PAGE. […]
# [4] = target: Ric8A; conditions: read-out: KD previously estimated; cited from earlier work
# [5] = system: Ric8A1–452; assay: DSF: thermal stabilization of Ric8A1–452 by Gαt333–350; format: binding, bovine; conditions: 9.1 µM Ric8A1–452, 50 µM peptide, mean ± SD
# Description: Stabilities of Ric8A constructs with and without peptide ligands were assessed using differential scanning fluorimetry (DSF), in which an increase in fluorescence of the Sypro Orange dye is measured. […] Temperature was increased at 1 °C/minute and fluorescence signals were recorded using real-time PCR (C1000 Touch thermal cycler, Bio Rad), with the cycler set to FRET mode and the excitation wavelength set at 450–490 nm and the emission wavelength at 560–580 nm.
# [6] = target: T1, Ric8A1–492; assay: BLI: Avi-tagged I340Q/N343H mutant of Gαt binding Ric8A1–492; parameters: species or system bovine
# Description: An Octet RED96 system and streptavidin (SA)-coated biosensors (FortéBio, Menlo Park, CA) were used to measure association and dissociation kinetics for Gα peptides or the full-length Avi-tagged Gαt in relation to Ric8A1–492, Ric8A1–452, and Ric8A1–426. To obtain the Avi-tagged Gαt, Gαt was cloned into modified pET21a vector with the N-terminal His6-tag followed by the Avi tag and TEV cleavage site[59]. The Avi-tagged I340Q/N343H mutant of Gαt was prepared by QuikChange protocol. BL21(DE3) cells for expression of the Avi-tagged Gαt were grown in 2TY media supplemented with biotin (10 mg/liter), induced at OD600 of 0.6 with 50 µM IPTG and further grown overnight at 16 °C. Binding studies were performed in 20 mM Tris, 150 mM KCl, 5% glycerol, 1 mM TCEP, 0.5 mg/ml BSA, pH 8.0. All steps were performed at 26 °C, with biosensors stirred into 0.2 ml of sample in each well at 1000 rpm, and at a data acquisition rate of 5.0 Hz. N-terminally biotinylated Gαt333–350, Gαs363–380, C1 peptide and C2 peptide were loaded onto SA sensors at a concentration of 0.05, 0.05, 0.005, and 0.01 mg/ml for 40–90 seconds. Data for association and dissociation phases of the assay were collected as shown in Fig. 1b and Supplementary Figs. 8, 11, 12, and 14. To correct for baseline drift and non-specific binding, reference sensors lacking bound Gα peptide were used in the BLI assays with Ric8A proteins at the highest concentrations. Kinetic data fitting was performed using FortéBio Data Analysis software 10.0. For each concentration of Ric8A1–492, dissociation rate constant (kd) values were calculated from the corresponding dissociation phases of the curves. These kd values were used to calculate the association rate constant (ka) values from the association phases for each concentration according to the equation1 ka=kobserved-kd∕Ric8A1-492 The average ka and kd were calculated as means of the individual ka and kd values for all curves. Equilibrium dissociation constant KD was calculated as mean kd/mean ka. Steady-state data fitting was performed using the GraphPad Prism 7 software with the equation for one site specific binding.
# Supplementary Figure 13. (A) Kinetics of association and dissociation of Ric8A1-492 and the Avi-tagged I340Q/N343H mutant of Gαt coupled to a streptavidin biosensor as determined using BLI. Representative experiment is shown. (B) The steady-state binding curve. For experiments performed in […]
# (1 picture or pasted object on this page, not shown here)
substance,measurement,setting,value
DAVTDIIIKENLKDCGLF [Gαt333–350],kon,[1],130000 ± 3e+09 M⁻¹ s⁻¹
same,stabilization effect (Tm shift) on Ric8A1–492,[2],~ 9 °C
"GB1-Gαt340–350: 11 C-terminal residues of Gαt fused to the B1 domain of Streptococcal protein G (IKENLKDCGLF; also: fused to GB1 (B1 domain of protein G), end not given here)",complex formation with Ric8A1–492 (in words),[3],formed complexes with Ric8A1–492 at nearly 1:1 stoichiometry
"Gα C-terminus: C-terminal 18-mer peptide of Gαi previously shown to bind to Ric8A (ref 26) (DAVTDVIIKNNLKDCGLF; UniProt P63096 337-354, looked up, fragment)",Kd,[4],12000 nM
Gαt340–350: 11-mer C-terminal peptide of Gαt (IKENLKDCGLF),Tm of Ric8A1–492 in the presence of peptide,"[2]; 8.7 µM Ric8A1–492, 50 µM peptide, mean ± SD (n = 3)",48.0 ± 0.3 °C
same,mean Tm of Ric8A1-492 + peptide,"[2]; source data, mean of 3 replicates",48 C
same,Tm (C ) of Ric8A1-492 + peptide,"[2]; source data, replicate 1",48.1 C
same,Tm (C ) of Ric8A1-492 + peptide,"[2]; source data, replicate 2",47.69 C
same,Tm (C ) of Ric8A1-492 + peptide,"[2]; source data, replicate 3",48.35 C
same,Tm of Ric8A1–452 in the presence of peptide,[5],55.75 °C
I340Q/N343H: Avi-tagged double I340Q/N343H mutant of full-length Gαt,Kd,"[6]; BLI steady state, Avi-tagged mutant on streptavidin biosensor, mean ± SD, n = 3 (triplicate), read-out: KD for Ric8A1–492",2.3 ± 0.4 µM
same,Kd,"[6]; BLI, representative experiment (Suppl. Fig. 13B), read-out: KD, steady-state binding curve",2.6 µM
same,Kd,"[6]; Suppl Fig 13B BLI steady state, replicate 1, read-out: KD uM (stady state)",1.95 µM
same,Kd,"[6]; Suppl Fig 13B BLI steady state, replicate 2, read-out: KD uM (stady state)",2.3 µM
same,Kd,"[6]; Suppl Fig 13B BLI steady state, replicate 3, read-out: KD uM (stady state)",2.66 µM
same,decrease of affinity for Ric8A1–492,[6]; relative to Gαt,about 100 fold
"MBP-Gαt327–350: 24 C-terminal residues of Gαt fused to MBP (NVKFVFDAVTDIIIKENLKDCGLF; not fully specified (N-terminus); also: N-terminal fusion to modified MBP via AAAH linker, His6 tag)",complex formation with Ric8A1–492 (in words),[3],formed complexes with Ric8A1–492 at nearly 1:1 stoichiometry
